Experimental data as given in PMC3983144 (Bioconjugate chemistry, 2014).
Square brackets hold non-standard residues; d marks the D form. Nle = CCCC[C@H](N)C(=O)O

Molecular target: melanocortin 1 receptor (mouse (endogenous in B16F10), UniProt Q01727 1-315)
Experiment: radioligand binding

Chain of melanocortin 1 receptor (Q01727 whole entry, one chain of several): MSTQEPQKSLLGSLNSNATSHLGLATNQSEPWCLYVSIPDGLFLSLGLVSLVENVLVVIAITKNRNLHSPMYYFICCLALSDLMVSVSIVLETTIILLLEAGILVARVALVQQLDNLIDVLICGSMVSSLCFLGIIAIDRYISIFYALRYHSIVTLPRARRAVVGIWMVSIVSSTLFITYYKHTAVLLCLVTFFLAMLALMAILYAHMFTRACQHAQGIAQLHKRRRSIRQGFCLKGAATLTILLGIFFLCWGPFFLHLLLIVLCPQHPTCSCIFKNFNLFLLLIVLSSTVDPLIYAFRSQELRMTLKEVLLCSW

- IC50: 2.19 ± 0.54 nM
B1: Ac-Cys-Nle-Asp-His-D-Phe-Arg-Trp-Gly-Lys-NH2 (peptide)
chain: Ac-C[Nle]DH[dF]RWGK-NH2
SMILES: CCCC[C@H](NC(=O)[C@H](CS)NC(C)=O)C(=O)N[C@@H](CC(=O)O)C(=O)N[C@@H](Cc1c[nH]cn1)C(=O)N[C@H](Cc1ccccc1)C(=O)N[C@@H](CCCNC(=N)N)C(=O)N[C@@H](Cc1c[nH]c2ccccc12)C(=O)NCC(=O)N[C@@H](CCCCN)C(N)=O
